Results: patent US20110166062A1 (INDIANA UNIVERSITY RESEARCH AND TECHNOLOGY, published 2011)
Where no end group is shown, it is not given here. [ ]: non-standard residue; d: D form. The star is where a group is joined. PEG 40 kDa = PEG (40 kDa) covalently attached to Cys; Met(O) = CS(=O)CC[C@H](N)C(=O)O; Myristoyl = CCCCCCCCCCCCCC(=O)*; Nle = CCCC[C@H](N)C(=O)O; Orn = NCCC[C@H](N)C(=O)O; Dab = NCC[C@H](N)C(=O)O; Dap = NC[C@H](N)C(=O)O; Aib = CC(C)(N)C(=O)O; Carbamoyl = NC(=O)*; Acm = CC(=O)NC*

B1: mt-353 (peptide)
peptide: Y[Aib]EGTFTSDYSIYLDKQAA[Aib]EFVC(PEG 40 kDa)WLLAGGPSSGAPPPSK(Myristoyl)-NH2
B2: mt-341 (peptide)
peptide: Y[Aib]EGTFTSDK(Myristoyl)SIYLDKQAA[Aib]EFVC(PEG 40 kDa)WLLAGGPSSGAPPPS-NH2
B3: mt-343 (peptide)
peptide: YXEGTFTSDYSIYLDKQAAXEFVNWLLAGGPSSGAPPPSKC
modifications: AIB at position 20 (Example 25); listed among the acylated glucagon peptides in paragraph 284; other non-standard residues as in the sequence listing
B4: mt-344 (peptide)
peptide: B3 peptide
modifications: AIB at position 20 (Example 25); other non-standard residues as in the sequence listing
B5: mt-345 (peptide)
peptide: HXQGTFTSDYSKYLDEQAAKEFICWLMNGGPSSGAPPPSK
modifications: listed among the acylated glucagon peptides in paragraph 284; non-standard residues as in the sequence listing
B6: HSDab(Ac)…ibRRATDFVTWLLDE (peptide)
peptide: HS[Dab](Ac)GTFTSDYSKYLD[Aib]RRATDFVTWLLDE
B7: HSDab(Ac)…ibRRAADFVAWLLDTGPSSGAPPPS amide (peptide)
peptide: HS[Dab](Ac)GTFTSDYSKYLD[Aib]RRAADFVAWLLDTGPSSGAPPPS-NH2
modifications: N-terminus assumed
SMILES: CC(=O)NCC[C@H](NC(=O)[C@H](CO)NC(=O)[C@@H](N)Cc1c[nH]cn1)C(=O)NCC(=O)N[C@H](C(=O)N[C@@H](Cc1ccccc1)C(=O)N[C@H](C(=O)N[C@@H](CO)C(=O)N[C@@H](CC(=O)O)C(=O)N[C@@H](Cc1ccc(O)cc1)C(=O)N[C@@H](CO)C(=O)N[C@@H](CCCCN)C(=O)N[C@@H](Cc1ccc(O)cc1)C(=O)N[C@@H](CC(C)C)C(=O)N[C@@H](CC(=O)O)C(=O)NC(C)(C)C(=O)N[C@@H](CCCNC(=N)N)C(=O)N[C@@H](CCCNC(=N)N)C(=O)N[C@@H](C)C(=O)N[C@@H](C)C(=O)N[C@@H](CC(=O)O)C(=O)N[C@@H](Cc1ccccc1)C(=O)N[C@H](C(=O)N[C@@H](C)C(=O)N[C@@H](Cc1c[nH]c2ccccc12)C(=O)N[C@@H](CC(C)C)C(=O)N[C@@H](CC(C)C)C(=O)N[C@@H](CC(=O)O)C(=O)N[C@H](C(=O)NCC(=O)N1CCC[C@H]1C(=O)N[C@@H](CO)C(=O)N[C@@H](CO)C(=O)NCC(=O)N[C@@H](C)C(=O)N1CCC[C@H]1C(=O)N1CCC[C@H]1C(=O)N1CCC[C@H]1C(=O)N[C@@H](CO)C(N)=O)[C@@H](C)O)C(C)C)[C@@H](C)O)[C@@H](C)O
B8: HSDab(Ac)…ibRRASDFVSWLLDE (peptide)
peptide: HS[Dab](Ac)GTFTSDYSKYLD[Aib]RRASDFVSWLLDE
B9: Peptide J backbone with C(Acm) at position 3 (peptide)
peptide: HSC(Acm)GTFTSDYSKYLDTRRAAEFVAWL[Nle]DE
B10: Peptide J backbone with Dap(urea) at position 3 (peptide)
peptide: HS[Dap](Carbamoyl)GTFTSDYSKYLDTRRAAEFVAWL[Nle]DE
B11: Peptide J backbone with Dab(Ac) at position 3 (peptide)
peptide: HS[Dab](Ac)GTFTSDYSKYLDTRRAAEFVAWL[Nle]DE
B12: Peptide J backbone with M(O) at position 3 (peptide)
peptide: HS[Met(O)]GTFTSDYSKYLDTRRAAEFVAWL[Nle]DE
B13: Peptide J backbone with Q at position 3 (peptide)
peptide: HSQGTFTSDYSKYLDTRRAAEFVAWL[Nle]DE
B14: Peptide K backbone with Dab(Ac) at position 3 (peptide)
peptide: HS[Dab](Ac)GTFTSDYSKYLD[Aib]RRAADFVAWLMDE
B15: Peptide K backbone with Q at position 3 (peptide)
peptide: HSQGTFTSDYSKYLD[Aib]RRAADFVAWLMDE
B16: Peptide J backbone with Orn(Ac) at position 3 (peptide)
peptide: HS[Orn](Ac)GTFTSDYSKYLDTRRAAEFVAWL[Nle]DE
B17: mt-259 (peptide)
peptide: Y[Aib]QGTFTSDYSIYLDSQAA[Aib]EFVCWLLAG-NH2
modifications: N-terminus assumed
SMILES: CC[C@H](C)[C@H](NC(=O)[C@H](CO)NC(=O)[C@H](Cc1ccc(O)cc1)NC(=O)[C@H](CC(=O)O)NC(=O)[C@H](CO)NC(=O)[C@@H](NC(=O)[C@H](Cc1ccccc1)NC(=O)[C@@H](NC(=O)CNC(=O)[C@H](CCC(N)=O)NC(=O)C(C)(C)NC(=O)[C@@H](N)Cc1ccc(O)cc1)[C@@H](C)O)[C@@H](C)O)C(=O)N[C@@H](Cc1ccc(O)cc1)C(=O)N[C@@H](CC(C)C)C(=O)N[C@@H](CC(=O)O)C(=O)N[C@@H](CO)C(=O)N[C@@H](CCC(N)=O)C(=O)N[C@@H](C)C(=O)N[C@@H](C)C(=O)NC(C)(C)C(=O)N[C@@H](CCC(=O)O)C(=O)N[C@@H](Cc1ccccc1)C(=O)N[C@H](C(=O)N[C@@H](CS)C(=O)N[C@@H](Cc1c[nH]c2ccccc12)C(=O)N[C@@H](CC(C)C)C(=O)N[C@@H](CC(C)C)C(=O)N[C@@H](C)C(=O)NCC(N)=O)C(C)C
B18: mt-258 (peptide)
peptide: Y[Aib]QGTFTSDYSIYLDEQAA[Aib]EFVCWLLAG-NH2
modifications: N-terminus assumed
SMILES: CC[C@H](C)[C@H](NC(=O)[C@H](CO)NC(=O)[C@H](Cc1ccc(O)cc1)NC(=O)[C@H](CC(=O)O)NC(=O)[C@H](CO)NC(=O)[C@@H](NC(=O)[C@H](Cc1ccccc1)NC(=O)[C@@H](NC(=O)CNC(=O)[C@H](CCC(N)=O)NC(=O)C(C)(C)NC(=O)[C@@H](N)Cc1ccc(O)cc1)[C@@H](C)O)[C@@H](C)O)C(=O)N[C@@H](Cc1ccc(O)cc1)C(=O)N[C@@H](CC(C)C)C(=O)N[C@@H](CC(=O)O)C(=O)N[C@@H](CCC(=O)O)C(=O)N[C@@H](CCC(N)=O)C(=O)N[C@@H](C)C(=O)N[C@@H](C)C(=O)NC(C)(C)C(=O)N[C@@H](CCC(=O)O)C(=O)N[C@@H](Cc1ccccc1)C(=O)N[C@H](C(=O)N[C@@H](CS)C(=O)N[C@@H](Cc1c[nH]c2ccccc12)C(=O)N[C@@H](CC(C)C)C(=O)N[C@@H](CC(C)C)C(=O)N[C@@H](C)C(=O)NCC(N)=O)C(C)C

Each binder was assayed against T1, GIP receptor (UniProt P48546 22-466) (assay: cell-based or functional assay).
T1 sequence (looked up): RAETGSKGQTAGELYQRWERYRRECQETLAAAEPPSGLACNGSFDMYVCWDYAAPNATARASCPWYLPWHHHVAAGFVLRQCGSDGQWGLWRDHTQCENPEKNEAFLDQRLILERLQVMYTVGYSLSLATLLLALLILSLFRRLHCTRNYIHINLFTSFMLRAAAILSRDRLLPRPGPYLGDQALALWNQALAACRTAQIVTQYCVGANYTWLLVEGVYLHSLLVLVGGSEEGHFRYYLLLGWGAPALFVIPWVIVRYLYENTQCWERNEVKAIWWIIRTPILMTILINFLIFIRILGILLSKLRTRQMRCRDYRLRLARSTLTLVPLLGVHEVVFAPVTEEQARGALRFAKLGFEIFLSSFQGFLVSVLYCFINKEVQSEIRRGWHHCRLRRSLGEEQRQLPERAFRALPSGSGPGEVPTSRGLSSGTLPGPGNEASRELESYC

Binder | EC50, nM; GIP Receptor | relative activity; GIP Receptor
B1 | 0.0035 nM | 103%
B2 | 0.0566 nM | 27.4%
B3 | 0.0243 nM | 63.8%
B4 | 0.0319 nM | 48.6%
B5 |  | 4.99%

These binders were tested against GLP-1 receptor (UniProt P43220 24-463, limits assumed) (assay: cell-based or functional assay).

Binder | EC50, nM; GLP-1 Receptor | relative activity; GLP-1 Receptor
B1 | 0.0049 nM | 129%
B2 | 0.0636 nM | 14.6%
B3 | 0.0224 nM | 41.5%
B4 | 0.089 nM | 10.4%
B5 |  | 153%

What follows are binders tested against T2, glucagon receptor (UniProt P47871 26-477, limits assumed) (assay: cell-based or functional assay).
T2 sequence (P47871 26-477 limits assumed): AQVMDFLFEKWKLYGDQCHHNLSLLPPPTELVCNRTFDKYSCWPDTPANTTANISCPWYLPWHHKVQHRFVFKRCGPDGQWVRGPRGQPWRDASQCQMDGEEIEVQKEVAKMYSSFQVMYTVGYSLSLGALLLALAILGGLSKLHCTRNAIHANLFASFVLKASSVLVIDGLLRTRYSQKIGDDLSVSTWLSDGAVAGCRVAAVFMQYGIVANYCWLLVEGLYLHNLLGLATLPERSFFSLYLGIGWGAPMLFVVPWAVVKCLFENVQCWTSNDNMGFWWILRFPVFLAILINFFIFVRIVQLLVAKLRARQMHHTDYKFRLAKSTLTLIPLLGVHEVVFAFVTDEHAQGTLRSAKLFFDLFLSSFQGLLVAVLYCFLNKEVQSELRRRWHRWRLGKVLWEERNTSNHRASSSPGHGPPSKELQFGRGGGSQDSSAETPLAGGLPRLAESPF

Binder | EC50, nM; Glucagon Receptor | relative activity; Glucagon Receptor
B1 | 12.5 nM | 0.17%
B2 | 499 nM | 0.01%
B3 | 41.1 nM | 0.07%
B4 | 159 nM | 0.02%
B5 |  | 193%

Biological target: T2, glucagon receptor
Test: cell-based or functional assay
Remark: another data set of the same source

Binder | % activity* | EC50 (nM) at Glucagon Receptor
B6 | 46% | 0.057 nM
B7 | 113% | 0.023 nM
B8 | 54% | 0.048 nM

Biological target: T2, glucagon receptor
Test: cell-based or functional assay
Remark: another data set of the same source

Binder | % activity* | EC50 at Glucagon Receptor
B9 | 33% | 
B10 | 13% | 0.48 nM
B11 | 19% | 0.31 nM
B12 | 7% | 0.91 nM
B13 | 25% | 
B14 | 86% | 0.07 nM
B15 | 15% | 
B16 | 7% | 0.92 nM

What follows are binders tested against glucagon receptor (UniProt P47871 26-477, limits assumed) (assay: cell-based or functional assay).
Target sequence in this assay (P47871 26-477 limits assumed): as above

Binder | EC50 | relative activity
B17 | 0.297 nM | 23.1%
B18 | 0.487 nM | 14.1%

These binders were tested against T3, GIP receptor (UniProt P48546 22-466) (assay: cell-based or functional assay).
T3 sequence (looked up): T1 sequence (looked up)

Binder | EC50 | relative activity
B17 | 0.0799 nM | 12%
B18 | 0.057 nM | 16.8%

Biological target: GLP-1 receptor (UniProt P43220 24-463, limits assumed)
Test: cell-based or functional assay
Remark: another data set of the same source

Binder | EC50 | relative activity
B17 | 0.0189 nM | 63%
B18 | 0.0202 nM | 58.9%
